# Data reported in patent US20120316071A1 (published 2012).
# Residue numbers refer to the chain shown, from its start. Numbers in names are those of the source.
# B1: Fab VH5-51_IGHD5-18*01>3_IGHJ4*01 G100K & V3-4_IGLJ1*01 (Fab, V domains shown)
# VH: EVQLVQSGAEVKKPGESLKISCKGSGYSFTSYWIGWVRQMPGKGLEWMGIIYPGDSDTRYSPSFQGQVTISADKSISTAYLQWSSLKASDTAMYYCARRKYSYGYDYFDYWGQGTLVTVSS
# VL: QTVVTQEPSFSVSPGGTVTLTCGLSSGSVSTSYYPSWYQQTPGQAPRTLIYSTNTRSSGVPDRFSGSILGNKAALTITGAQADDESDYYCVLYMGSGISYVFGTGTKVTVL
# notes: Fab
# B2: Fab VH5-51_IGHD5-18*01>3_IGHJ4*01 G104T & V3-4_IGLJ1*01 (Fab, V domains shown)
# VH: B1 VH with K100G, G104T
# VL: B1 VL
# notes: Fab
# B3: Fab VH3-23_IGHD2-21*01>3_IGHJ6*01 H100E/S108P/Y113G Y114P & V2-13_IGLJ2*01 (Fab, V domains shown)
# VH: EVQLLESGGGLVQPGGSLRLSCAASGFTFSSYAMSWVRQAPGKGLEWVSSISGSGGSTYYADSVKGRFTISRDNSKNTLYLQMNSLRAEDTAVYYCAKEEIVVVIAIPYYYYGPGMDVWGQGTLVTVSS
# VL: SSELTQDPAVSVALGQTVRITCQGDSLRSYYASWYQQKPGQAPVLVIYGKNNRPSGIPDRFSGSSSGNTASLTITGAQAEDEADYYCNSRDSSGNHLVVFGGGTKLTVL
# notes: Tested as Fab made in E. coli (VH-CH1 with His and Flag tags; lambda CL); also called EPG Y114P
# B4: Fab VH3-23_IGHD2-21*01>3_IGHJ6*01 H100E/S108P/Y113G Y114T & V2-13_IGLJ2*01 (Fab, V domains shown)
# VH: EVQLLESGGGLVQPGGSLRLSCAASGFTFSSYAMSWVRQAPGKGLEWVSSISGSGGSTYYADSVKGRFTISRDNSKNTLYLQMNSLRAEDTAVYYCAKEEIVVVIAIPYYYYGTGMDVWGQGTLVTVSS
# VL: B3 VL
# notes: Tested as Fab made in E. coli (VH-CH1 with His and Flag tags; lambda CL); also called EPG Y114T
# B5: Fab VH1-46_IGHD6-6*01_IGHJ1*01 & A27_IGKJ1*01 (Fab, V domains shown)
# VH: QVQLVQSGAEVKKPGASVKVSCKASGYTFTSYYMHWVRQAPGQGLEWMGIINPSGGSTSYAQKFQGRVTMTRDTSTSTVYMELSSLRSEDTAVYYCAREEYSSSSAEYFQHWGQGTLVTVSS
# VL: not shown
# notes: Fab; also called non-Hit
# B6: Fab VH1-46_IGHD6-6*01_IGHJ1*01 & A27_IGKJ1*01 (Fab, V domains shown)
# VH: B5 VH
# VL: not shown
# notes: Germline Fab from the combinatorial library, with CH1 (plus His6 and Flag tags) and a kappa constant region from the expression plasmids
# B7: Fab VH1-46_IGHD6-6*01_IGHJ1*01 & L25_IGKJ1*01 (Fab, V domains shown)
# VH: B5 VH
# VL: EIVMTQSPATLSLSPGERATLSCRASQSVSSSYLSWYQQKPGQAPRLLIYGASTRATGIPARFSGSGSGTDFTLTISSLQPEDFAVYYCQQDYNLPPWTFGQGTKVEIKR
# notes: as for B6
# B8: Fab VH1-46_IGHD6-6*01_IGHJ1*01 & L25_IGKJ1*01 (Fab, V domains shown)
# VH: B5 VH
# VL: B7 VL
# notes: Fab; also called non-Hit
# Legend:
# [1] = molecular target: T1, Recombinant Human DLL4 (R&D Systems Cat#1506-D4/CF) (human, UniProt Q9NR61 27-524); experiment: 96-well plate ECL
# T1 construct: bought recombinant protein; also called rHuman DLL4; delta-like protein 4
# [2] = molecular target: T2, rHuman ErbB2/Fc Chimera, CF (R&D Systems Cat#1129-ER) (human, UniProt P04626 23-652); experiment: ECL (MSD) multispot binding assay, antigen spotted on plate, 20 nM Fab;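 note: purified Fab incubated 1 h at 20 °C on antigen-spotted plate, bound Fab revealed with TAG detection antibody, ECL read, antigen signal divided by same-well blank, ratio ≥4 counted as hit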
# T2 construct: Bought reagent; also called human epidermal growth factor 2 receptor; Fc part of the bought chimera not given
# [3] = molecular target: T3, rHuman EGF R/Fc Chimera, CF (R&D Systems Cat#344-ER) (human, UniProt P00533 25-645); experiment: as above
# T3 construct: Bought reagent; also called epidermal growth factor receptor; Fc part of the bought chimera not given
# [4] = molecular target: T4, rHuman HGF R/c-MET/Fc Chimera, CF (R&D Systems Cat#358-MT/CF) (human, UniProt P08581 25-932); experiment: as above
# T4 construct: Bought reagent; also called HGF R/Fc; hepatocyte growth factor receptor; Fc part of the bought chimera not given
# T4 sequence (P08581 25-932, change not shown): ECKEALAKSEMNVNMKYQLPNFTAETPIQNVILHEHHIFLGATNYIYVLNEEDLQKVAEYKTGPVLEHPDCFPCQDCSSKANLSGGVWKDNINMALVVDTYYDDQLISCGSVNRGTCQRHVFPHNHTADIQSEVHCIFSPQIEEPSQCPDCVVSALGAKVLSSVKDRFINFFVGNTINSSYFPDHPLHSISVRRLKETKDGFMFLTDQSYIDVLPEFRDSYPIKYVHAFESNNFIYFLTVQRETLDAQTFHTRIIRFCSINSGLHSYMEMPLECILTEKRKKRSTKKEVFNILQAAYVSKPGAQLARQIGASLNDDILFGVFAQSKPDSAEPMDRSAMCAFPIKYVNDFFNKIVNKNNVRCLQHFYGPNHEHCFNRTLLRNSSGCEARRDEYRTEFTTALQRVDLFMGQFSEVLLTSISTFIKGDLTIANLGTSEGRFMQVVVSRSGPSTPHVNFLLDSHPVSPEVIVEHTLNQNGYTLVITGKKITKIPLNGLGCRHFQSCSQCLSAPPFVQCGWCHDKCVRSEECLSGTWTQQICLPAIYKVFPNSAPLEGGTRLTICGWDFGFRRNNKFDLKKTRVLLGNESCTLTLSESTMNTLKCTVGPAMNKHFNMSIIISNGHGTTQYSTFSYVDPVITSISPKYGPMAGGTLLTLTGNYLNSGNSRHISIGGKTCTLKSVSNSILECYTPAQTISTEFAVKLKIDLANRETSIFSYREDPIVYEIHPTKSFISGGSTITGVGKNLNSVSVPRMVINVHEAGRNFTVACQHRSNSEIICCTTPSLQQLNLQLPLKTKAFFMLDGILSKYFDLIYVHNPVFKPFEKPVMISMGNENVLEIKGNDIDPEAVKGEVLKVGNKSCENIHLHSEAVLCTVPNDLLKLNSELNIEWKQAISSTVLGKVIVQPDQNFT
# [5] = molecular target: T5, rHuman Notch-1/Fc Chimera, CF (R&D Systems Cat#3647-TK) (human, UniProt P46531 19-526); experiment: as above
# T5 construct: Bought reagent; Fc part of the bought chimera not given
# [6] = molecular target: T6, rHuman CD44/Fc Chimera, CF (R&D Systems Cat#3660-CD) (human, UniProt P16070 21-220); experiment: as above
# T6 construct: Bought reagent; Fc part of the bought chimera not given
# [7] = molecular target: T7, rHuman IGF-1 sR, CF (R&D Systems Cat#391-GR) (human, UniProt P08069 31-932); experiment: as above
# T7 construct: Bought soluble receptor; also called insulin-like growth factor-1 soluble receptor
# [8] = molecular target: T8, rHuman P-Cadherin/Fc Chimera, CF (R&D Systems Cat#861-PC) (human, UniProt P22223 108-654); experiment: as above
# T8 construct: Bought reagent; Fc part of the bought chimera not given
# [9] = molecular target: T9, rHuman Erythropoietin R/Fc Chimera, CF (R&D Systems Cat#963-ER) (human, UniProt P19235 25-250); experiment: as above
# T9 construct: Bought reagent; also called EPO R; EPO R/Fc; Fc part of the bought chimera not given
# T9 sequence (looked up): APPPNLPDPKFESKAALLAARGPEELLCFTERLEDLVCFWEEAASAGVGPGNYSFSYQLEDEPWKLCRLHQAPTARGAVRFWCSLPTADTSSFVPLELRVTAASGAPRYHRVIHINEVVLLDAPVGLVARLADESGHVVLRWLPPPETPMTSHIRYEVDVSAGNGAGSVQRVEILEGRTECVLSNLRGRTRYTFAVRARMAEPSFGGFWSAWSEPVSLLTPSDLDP
# [10] = molecular target: T10, Recombinant Human DLL4 (R&D Systems Cat#1506-D4/CF) (human, UniProt Q9NR61 27-524); experiment: as above
# T10 construct: Bought recombinant protein; also called delta-like protein 4; rHuman DLL4
# [11] = molecular target: T1, Recombinant Human DLL4 (R&D Systems …); experiment: Multispot ECL
# [12] = molecular target: T11, Recombinant Human DLL4 (delta-like protein 4) (human, UniProt Q9NR61 27-524); experiment: ECL (MSD) binding assay, Fab on immobilised recombinant human DLL4
# T11 construct: Bought recombinant protein; also called rHuman DLL4
binder,measurement,setting,value
B1,fold ECL signal against the parent Fab,[1],~2 fold
B2,fold ECL signal against the parent Fab,[1],~2 fold
B3,ECL multispot value,[2],1.4
same,ECL multispot value,[3],1.2
same,ECL multispot value,[4],2.7
same,ECL multispot value,[5],1.4
same,ECL multispot value,[6],1.1
same,ECL multispot value,[7],0.9
same,ECL multispot value,[8],1.3
same,ECL multispot value,[9],2.3
same,ECL multispot value,[10],1.1
B4,ECL multispot value,[2],1.4
same,ECL multispot value,[3],1.3
same,ECL multispot value,[4],1.8
same,ECL multispot value,[5],1.8
same,ECL multispot value,[6],1.1
same,ECL multispot value,[7],1.1
same,ECL multispot value,[8],1.7
same,ECL multispot value,[9],2
same,ECL multispot value,[10],1.6
B5,binding result,[11],no binding
B6,binding result,[12],no binding
B7,binding result,[12],no binding
B8,binding result,[11],no binding
